Experimental data reported in the nanobody polyreactivity screen of Harvey et al. (2022).

Test: yeast display, Sf9 membrane polyspecificity reagent, FACS + sequencing; frameworks hold sequencing errors
Summary of the method: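 Nanobodies came from a synthetic yeast display library in Saccharomyces cerevisiae BJ5465, induced with galactose for 36–48 hours and stained for 1 hour at 4 °C with 10% biotinylated, detergent-solubilized Sf9 membrane reagent. Cells were enriched on streptavidin microbeads and then FACS-sorted, with low and high (top ~1%) gates set on anti-HA fluorescence for expression and streptavidin fluorescence for reagent binding. Each polyreactivity label reflects the gate a clone came from. Genes were amplified by colony PCR, sequenced by MiSeq 2 × 250 and filtered by CDR length.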

| Sequence | polyreactivity (PSR sort gate) |
| --- | --- |
| QVQLVESGGGLVQAGGSLRLSCAASGYIFYRYAMGWYRQAPGKEREFVASITKRGGRTFYADSVKGRFTISRDNAKNTVYLQMNSLKPEDTAVYYCARKAEYGTDMGYWGQGTQVTVSS | high polyreactivity |
| QVQLVESGGGLVQAGGSLRLSCAASGYIFYSCAMGWYRQAPGKERELVATISSGGSTYYSDSVKGRFTISRDNAKNTVYLQMNSLKPEDTAVYYCNAKMYKPPFDYWGQGTQVTVSS | low polyreactivity |
| QVQLVESGGGLVQAGGSLRLSCAASGYIFYTYAMGWYRQAPGKERELVASIDSGGSTNYADSVKGRFTISRDNAKNTVYLQMNSLKPEDTAVYYCAADVIVRVYYYYYVLMDYWGHGTQVTVSS | low polyreactivity |
| QVQLVESGGGLVQAGGSLRLSCAASGYIFYYNAMGWYRQAPGKERELVADITWSGDSTYYADSVKGRFTISRYNAKNTVYLQMNSLKPEDTAVYYCAAEYLEYWDYDIMDYWGQGTQVTVSS | low polyreactivity |
| QVQLVESGGGLVQAGGSLRLSCAASGYIFYYNTMGWYRQAPGKERELVAAIRSSGGSTYYADSVKGRFTISRDNAKNTVYLQMNSLKPEDTAVYYCAARPYRTKLIYGYWGQGTQVTVSS | high polyreactivity |
| QVQLVESGGGLVQAGGSLRLSCAASGYIFYYYAMGWYRQAPGKERELVAAITFSGGSTYYADSVKGRFTISRDNAKNNVYLQMNRLKPEDTAGYYCAKVELRDAAELGSDEYDYWGQGTQVTVSS | low polyreactivity |
| QVQLVESGGGLVQAGGSLRLSCAASGYIGNYPMGWYRQAPGKESELVAAITTSGGRTYYADSVKGRFTISRDNAKNTVYVQMNSLKPEDTAVYYCAAPWRLFSLYDYWGQGTQVTVSS | low polyreactivity |
| QVQLVESGGGLVQAGGSLRLSCAASGYILGGNAMGWYRQAHGKERELDAVIRKSGGSTYADSVKGRFTISRDNAKNSVYLQMNSLKPEDTAVYYCNADTLAGVYFYQSDYWGQGTQVTVSS | low polyreactivity |
| QVQLVESGGGLVQAGGSLRLSCAASGYILGVYAMGWYRQAPGKERELVASISRSGGSTYYADSVKGRFTISRDNAKNTVYLQMNSLKPEDTAVYYCATRSRTAHFRLRYDYWGQGTQVTVSS | low polyreactivity |
| QVQLVESGGGLVQAGGSLRLSCAASGYILHPNAMRWYRQSPGKDRELVAAIRWRGGSTYYADSVKGRFTISRDNAKNTVYLQMNSLKPEDTAVYYCAADKSKYRAFDYWGQGTQVTVSS | high polyreactivity |
| QVQLVESGGGLVQAGGSLRLSCAASGYILIYNAMGWYRQAPGTERELVAAINYRGDRTYYADSVKGRFTISRDNAKNTVYLQMNSLKPEDTAVYYCAKDYPYYGRYYRYPYDSWGQGTQVTVSS | high polyreactivity |
| QVQLVESGGGLVQAGGSLRLSCAASGYILPKNTMGWYRQAPGKERELVAAISWSGGSTFYADSVKGRFTISRDNAKHTVYLQMNSLKPEDTAVYYCAADRSWSWYYRYDYWGQGTQVTVSS | low polyreactivity |
| QVQLVESGGGLVQAGGSLRLSCAASGYILPKNTMGWYRQAPGKERELVAAISWSGGSTFYADSVKGRFTISRDNAKNTVYLQMNSLKPEDTAVYYCAADRSWSWYYRYDYWGQGTQVTVSS | low polyreactivity |
| QVQLVESGGGLVQAGGSLRLSCAASGYILQINAMGWYRQAPGKERELVAAISISGGNTYYADSVKGRFTISRDNAKNTVYLQMNSLKPEDTAVYYCNAGGPLQPYDYWGQGTQVTVSS | low polyreactivity |
| QVQLVESGGGLVQAGGSLRLSCAASGYILTHYAMGWYRQAPGKERELVAAITSSGGSTYYADSVKGRFTISRDNAKNTVYLQMNSLKPEDTAVYYCAADAGQQEYDYWGQGTQVTVSS | low polyreactivity |
| QVQLVESGGGLVQAGGSLRLSCAASGYILWNAMGWYRPAPGKERELVAAIRFRGGSTSYADSVKGRFTISRDNAKNTVYLQMNSLKPEDTAVYYCNARWWVIRPYQRHDYWGQGTQVTVSS | low polyreactivity |
| QVQLVESGGGLVQAGGSLRLSCAASGYISYVNAMGWYRQAPGKERELVAAISGRGGSTYYADSVKGRFTISRDNAKNNVYLQMNSLKPEDTAVYYCAADLYYSYYWGQGTQVTVSS | low polyreactivity |
| QVQLVESGGGLVQAGGSLRLSCAASGYIVGAYAKGWYRQAPGKERELVAGITASGDSTYYADSVKGRFTISRDNAKNTVYLQMKCLKPEDTAVYYCNAQPDIGLYDRQWKEPYEYWGQGTQVTVSS | low polyreactivity |
| QVQLVESGGGLVQAGGSLRLSCAASGYIVYFNAMGWYRQAPGKERELVASIDSGGSTNYADSVKGRFTISRDNAKNTVYLQMNSLKPADTAVYYCAADKLYQPGIGDDYWGQGTQVTVSS | low polyreactivity |
| QVQLVESGGGLVQAGGSLRLSCAASGYIWYNAMRWYRQAPGKERELVAAISWGGGTTYYADSVKGRFTISRDNAKNTVYLQMNSLKPEDTAVYYCAAVDAVGPTSHAMYYWGQGTQVTVSS | low polyreactivity |
| QVQLVESGGGLVQAGGSLRLSCAASGYIWYYAMGWSRQAPGKERELVAAISWGGGSTYYADSVKGRFTISRDNAKNTVYLQMNSLKPEDTAVYYCATRCIPDDNARDYWGQGTQVTVSS | low polyreactivity |
| QVQLVESGGGLVQAGGSLRLSCAASGYIYSVNAMGWYRQAPGKERELVAAIRGSGGSTFYADSVKGRFTISRDNAKNTVYLQMNSLKPEDTAVSYCAASFLGSFTDWVYSVYEYGSWGQGTQVTVSS | low polyreactivity |

| Sequence | polyreactivity (PSR sort gate) |
| --- | --- |
| QVQLVESGGGLVQAGGSLRLSCAASGYLWYYAMGWYRQSPGKERELVAAICWGGGSTFFADSVKGRFTISRDNAKNTVYLQMNSLKPEDTAVYYCAAVDAVGPTSHAMFYWGQGTQVTGSS | low polyreactivity |
| QVQLVESGGGLVQAGGSLRLSCAASGYNFERNAMGWYRPAPGKERELVAAITDDGDDTYYADSVKGRFTISRDNAKNTVYLQMNSLKPEDTAVYYCAKDLYYGDYYYWGQGTQVTVSS | low polyreactivity |
| QVQLVESGGGLVQAGGSLRLSCAASGYNFPYYAMGWYRQAPGKERELVAGITTDGSSTYYADSVKGRFTISRDNAKNTVYLQMNSLKPEDTAVYYCYGYPGYTWGWYDYWGQGTQVTVSS | low polyreactivity |
| QVQLVESGGGLVQAGGSLRLSCAASGYNFRQYAMGWYRQATGKEREFVAAISQTGGSTYYADSVKGRFTISRDNANNTVYLQMNSLKPEDTAVYYCAARYRGQRYRKLDYWGQGTQVTVSS | high polyreactivity |
| QVQLVESGGGLVQAGGSLRLSCAASGYNFYINPMGWYRQAPGKERELVATIRRRGGSTYYADSVKGRFTISRDNAKNTVYLQMNSLKPEDTAVYYCNAVTLGGKYVYQYRRGFDYWGQGTQVTVSS | high polyreactivity |
| QVQLVESGGGLVQAGGSLRLSCAASGYNLSVNAMGWYRQAPGKERELVATIDIAGGSTYYADSVNGRFTISRDNAKNTVYLQMNSMKPVDTAVYYCNTEWNSLSKSSLGGRYDHWGQCTQVTVSS | low polyreactivity |
| QVQLVESGGGLVQAGGSLRLSCAASGYTAYTYTMGWYRQAPGKVREWVAAMSRRSDSTYADSVKGRFTISRDNAKNTVYLQMNSLKPEDTADYYCAAVRVSYRSLSKSYYWGQGTQVTVSS | high polyreactivity |
| QVQLVESGGGLVQAGGSLRLSCAASGYTFALYAMGWYRQAPGKERELVAAITWNGGSTYYADSVKGRFTISRDNAKNTVYLQMNSLKPEDTSVYYCNVESSQSSSGFDYWGQGTQVTVSL | low polyreactivity |
| QVQLVESGGGLVQAGGSLRLSCAASGYTFARNAMGWYRQAPGKERELVADINWSGTNTYYADSVKGRFTISRDNAKNTVYLQMNSLKPEDTAVDYCAKDLYFSGYEFDYWGQGTQVTVSS | low polyreactivity |
| QVQLVESGGGLVQAGGSLRLSCAASGYTFASNAMGWYRPAPGKERELVAAITRGGSTNYADSVKGRFTISRDNAKNTVYLQMNSLKPEDTAVYYFAAPRYRHTRKGGYWGQGTQVTVSS | low polyreactivity |
| QVQLVESGGGLVQAGGSLRLSCAASGYTFAVYAMGWYRQAPGKERELVAAISSDGSTNYADSVKGRFTISRDNAKNTVYFQMNSLKPEDTSVYYCAKVYKDLAGPFYDYWGQGTQVTVSS | low polyreactivity |
| QVQLVESGGGLVQAGGSLRLSCAASGYTFAWYAMGWYRQAPGKERELVAAINNGGSTSYADSVKGRFTISRDNAKNTVYLQMNSLKPEDTAVYYCNADHYGGPHWMDYWGQGTQVTVSS | low polyreactivity |
| QVQLVESGGGLVQAGGSLRLSCAASGYTFAWYAMGWYRQAPGKERELVAAITVSGGSTYYADSVKGRFTISRDNAKNTVYLQMNSLKPEDTAVYYCAAVGKSPSRFGYWGQGTQVTVSS | low polyreactivity |
| QVQLVESGGGLVQAGGSLRLSCAASGYTFDGYAMGWYRQAPGKERELVAAINSGGGTYYADSVKGRFTISRDNAKNTVYLQMNSLKPEDTAVYYCAKYTYDYWGQGTQVTVSS | low polyreactivity |
| QVQLVESGGGLVQAGGSLRLSCAASGYTFDWYTMGWYRQAPGKERELVAAISASGVRTYYADSVKGRFTISRDNAKNTVYLQMNSLKPEDTAVYYCNRVYSTSRITQYEFDYWGQGTQVTVSS | low polyreactivity |
| QVQLVESGGGLVQAGGSLRLSCAASGYTFEPYAMGWYRQAPGKESELVAAISRGGTTNYADSVKGRFTISRDNAKNTVYLQINSLKPEDTAVYYCASSYFRRVFYSIYEYDYWGQGTQVTVSS | low polyreactivity |
| QVQLVESGGGLVQAGGSLRLSCAASGYTFEYYAMGWYRQAPGKERELVAAISWSGGDTYYADSVKGRFTISRDNAKNTVYLQMNSLNPEDTAVYYCAAVRYYRRRTGSYYHYDYWGQGTQVTVSS | low polyreactivity |
| QVQLVESGGGLVQAGGSLRLSCAASGYTFFKNAMGWYRQAPGKERELVAAISYSGGRTYYADSVKGRFTISRDNAKNTVYLQMNSLKPEDTAVYYCAKATRVITDDGSYGYWGQGTQVTVSS | high polyreactivity |
| QVQLVESGGGLVQAGGSLRLSCAASGYTFFYAMGWYRQAPGKERQLVAGISRAGRTKYADSVKGRFTISRDNAKNTVYLQMNSLKPEDTAVYYCAAYARVSSSRFDYWGQGTQVTVSS | high polyreactivity |
| QVQLVESGGGLVQAGGSLRLSCAASGYTFFYYAMGWYRQAPGKERELVATISGNGGRTYYADSVKGRFTISRDNAKKTVYLQMNSLKPEDTAVYYCAALLYIRSVGYDYWGQGTQVTVSS | low polyreactivity |
| QVQLVESGGGLVQAGGSLRLSCAASGYTFGEYAMGWYRQAPGKERELVATISLSDGSTNYADSVKGRFTISRDNAKNTVYLQMNSLKPEDTAVYYCATTVWYKKAPYPDGDYWGQGTQVTVSS | low polyreactivity |
